Data published in the DeepSol protein solubility set.

Test: soluble on expression in E. coli; label from the status in PepcDB or PDB records

Sequence | soluble on expression in E. coli
MSLSKSLQKPTILNVETVARSRLFTVESVDLEFSNGVRRVYERMRPTNREAVMIVPIVDDHLILIREYAVGTESYELGFSKGLIDPGESVYEAANRELKEEVGFGANDLTFLKKLSMAPSYFSSKMNIVVAQDLYPESLEGDEPEPLPQVRWPLAHMMDLLEDPDFNEARNVSALFLVREWLKGQGRVEGGSHHHHHH | soluble
MRDAEKTVGNMIDKLKTAFIGSIDSEGFPNMKAMLQPRKREGIKTIYLTTNTSSMRVAQYRENNHACIYFCDTRFFRGVMLRGTMEVLTDPASKEMIWQEGDTMYYPEGVTDPDYCVLKFTAISGRFYSNFKSESFAVE | not soluble
MSEQYVYQHGTLGGLMESLMAGTAEIGTLLTQGDFGIGTLEGSNGEIILLDGTLYHANQTGEITILEGEELTPYAAVTRFQEDGAFPVSTETDENIKAQILEKISPNFFAAIKISGLFAKMHVRVAPKQEKPYPPFVEAARNQPEFTAENIQGTVVGFFTPKLFHGASAAGFHLHFISEDHQFGGHILDFGIKQGTVSWMETAELRQHFPVHDADYRNKEIDIAKALSAIEEAE | not soluble
MGIHKPKFYAVRAGRDKGVFSSWEECRKAIYGFSGAVYRSFPTLEEAQAWFKGETLSDPLKAEDDSLRDDRTEYDVYTDGSYVNGQYAWAYAFVKDGKVHYEDADVGKNPAAATMRNVAGEIAAALYAVKKASQLGVKIRILHDYAGIAFWATGEWKAKNEFTQAYAKLMNQYRGIYSFEKVKAHSGNEFNDYVDMKAKSALGIRDLEHHHHHH | not soluble
RADPDPMKNTCKLLVVADHRFYRYMGRGEESTTTNYLIELIDRVDDIYRNTAWDNAGFKGYGIQIEQIRILKSPQEVKPGEKHYNMAKSYPNEEKDAWDVKMLLEQFSFDIAEEASKVCLAHLFTYQDFDMGTLGLAYVGSPRANSHGGVCPKAYYSPVGKKNIYLNSGLTSTKNYGKTILTKEADLVTTHELGHNFGAEHDPDGLAECAPNEDQGGKYVMYPIAVSGDHENNKMFSQCSKQSIYKTIESKAQECFQERSNKVGSHHHHHH | soluble
MSLSVAIRVKDLTKKYKLYQKRSERLANAFGKEKNIKEFYALKGVSFEISKGECVGIIGHNGAGKSTLLKLLTGVAFPTSGEIEINGRLASMLELGSGFNPELTGMENIYFNGSLNGLTKEEIDGKLKDILEFADIGNFIEQPVKNYSSGMFARLAFAVAINVDPDILIVDEILSVGDVGFQVKCMEKFNEFKKKGKTILYVSHGLGTVKKFCDRAIWLQKGEVVDDGNSVIVVERYYNLNFNPANIEQLKDHKSDIINSIAVKSNTKNVEYLEKLDLEVEYDLISNDLKDPNIVLEFRKTDYEPGTTRGNDQFVCGINSKDNIKNIPFNLGVNKLKVSLNKVNLVAGVYYIDFVLRDGEEEVYRKINGYSFTLNEGHHHHHH | soluble
MNSTHHYEQLIEIFNSCFADDFNTRLIKGDDEPIYLPADAEVPYNRIVFAHGFYASAIHEISHWCIAGKARRELVDFGYWYCPDGRDAQTQSQFEDVEVKPQALDWLFCVAAGYPFNVSCDNLEGDFEPDRVVFQRRVHAQVMDYLTNGIPERPARFIKALQNYYHTPELTAEQFPWPEALN | not soluble
MSLGKYFGTDGVRGVANSELTPELAFRLGRMGGYVLTRHVGEHPRVLVARDTRISGEMLESALIAGLVSVGIEVMRLGVISTPGVAYLTKAQGASASVMISASHNPVDDNGIKFFGSDGFKLSDDQEEEIEQLLDTAEDTLPRPSGEGLGTVSDYFEGKQKYIQYLKQTIENDFNGYHIALDCANGATSGLATHLFADLDADISSMGASPNGLNINDGVGSTHPEALAAFVLDKKADVGLAFDGDGDRVIAIDEIGQIVDGDKIMFICAKYLREQGLLNNNTIVSTVMSNLGFYKGLKELEIEDVQTAVGDRYVVEAMREGNYNLGGEQSGHIIFLDHNTTGDGLLSGIQLINVMKATGKKLSELAAEMKTFPQKLENIRVSDKNHVTDNPKVSKVIGEVEAEMAGNGRVLVRPSGTEPLVRVMVEAATKEETDEYCERISAVVRSEMALNDEGHHHHHH | soluble
MPADIMEKNSSSPVAASVNTTPDKPKTASEHRKSSKPIMEKRRRARINESLSQLKTLILDALKKDSSRHSKLEKADILEMTVKHLRNLQRAQMTAALSTDPSVLGKYRAGFSECMNEVTRFLSTCEGVNTEVRTRLLGHLANCMTQINAMTYPGQPHPALQAPPPPPPGPGGPQHAPFAPPPPLVPIPGGAAPPPGGAPCKLGSQAGEAAKVFGGFQVVPAPDGQFAFLIPNGAFAHSGPVIPVYTSNSGTSVGPNAVSPSSGPSLTADSMWRPWRN | soluble
MTELDQFWPACLARLEAELSSQQFNTWIKPLTAEAGDEGIALFAPNRFIMQFIKDRFLPRIEELAVELVGELPVELRLGAPTARPAAPVAGNSQPKAKEPAKAAASAPAAPSPAKQAAVKAIGGSHESTRLNPSFTFDTLVTGKGNQLARAAAMQIAENPGDQAYNPLFVYGGVGLGKTHLIQAIGNHVFQKNPQAKIRYIHAERYVADIMRAYQHKAFDEFKRYYHSLDLLLIDDIQFFAGKNRTQEEFFYAFNALIEGGKQVIMTCDSYPKQIEGMEERLISRFSWGLTVEIQPPELEMRVAILMKKAEADSIKLEHNVAFFIAQNVRSNVRELEGALKRVVAYARFTSQNITLELVKEALKDILAAGNRQVTVDAIQKTVAEYYKIKLSDMHSKKRSRDIARPRQVAMALAKELTQLSLPNIGDAFGGRDHTTVLHACKTITEMRASDADIAHDYEALLSMLRNLEHHHHHH | not soluble
MISVFDIYKIGVGPSSSHTVGPMKAGKEFIDDLRAMGKLRDITKITVDVYGSLSLTGKGHHTDIAIIMGLAGNSPEKVDIDSIPGFIARVEETERLPVGMHCHTVSFPREGGMNFHKTNLELHENGMQIHAWIDDEKVYSKTYYSIGGGFIVDEENFGK | not soluble
MKPIQLPLSVRLRDDATFANYYPGANAAALGYVERLCEAEAGWAESLIYLWGHDGVGRSHLLQAACLRFEQFEERTIYLPMADLVQYGPEIFDDLEQCELVCIDDLDVLVGKREWEEGLFHLFNRLRDTGRRLLLAASKSPRELQVKLPDLKSRLTMALIFQLHGLSDEDKLRALQLRASRRGLHLTDEVGRFILNRGSRSMNSLFDLLEQLDRASLQAQRKLTIPFLKETLGWLEHHHHHH | soluble
MAHHHHHHMKKRYGNAGDWAVVTGASEGIGYAMALDLGRRGFNVCVIARTLSKLENVVEELKQLGVQGKAISFDFASATPKQYDDMFAELDKIEIAVLVNNVGVNYTYTNYFDEVDLETDLRLLKVNCESSVRMTKYVVPKMKAKRCGAIVMLGSVSAVTPAPLLCTYAGTKAFNLSFGSGLYYELKQFGIDVLAVSPNMVVSKMTQGLSSRKPRETFLMVNADRMAHQTLDKLGSVPQTPGHCNHAVLEAIVRALPTGYVSNKILETHKSIKRKAERKRE | not soluble
MPEEDLVELKFRLYDGSDVGPFQYSPTATVSMLKERIVSEWPKDKKIVPKSASDIKLINAGKILENGKTVAQCKAPFDDLPKSVITMHVVVQLSPTKARPEKKIEKEEAPQRSFCSCTIM | soluble
MFTESPSRAISSYQRVGVESGVVSADPHKLILMLFEGARQALDCSLLYIQQNRIAAKGEMISKAIMIIDHGLKASLDKTAGGELANRLEQLYDYMTARLLTANLQNDAVIIEEISCLLGELHEAWASIGNQPAGKTDVQTATRNTIEDTAGTGAMA | not soluble
MSFLISFDKSKKHPAHLQLANNLKIALALEYASKNLKPEVDNDNAAMELRNTKEPFLLFDANAILRYVMDDFEGQTSDKYQFALASLQNLLYHKELPQQHVEVLTNKAIENYLVELKEPLTTTDLILFANVYALNSSLVHSKFPELPSKVHNAVALAKKH | soluble
MFFCTILSFFDFGRYFMEKNQYEIYHENKKHTPNDFPYNTYLCSIPLDFKSVNLHWHNEVELIVIKKGQGLVNVNLVTYTVNAGDVVFVFPGQLHSISQKDYSIMEYENILFKSSLLKSSGYDLCNDKFIQPLLSGNLNIYPVINSNFDFHDSLYSLINEIDKLCDKRPYAYQLAVKSYLFQIFYLLISNCGLNQIKPISKKALEK | not soluble
MGSDKIHHHHHHMIMKFFDREREINEILGILDETPDNIYFIYGPINSGKTTLMMEIINRLKDDKKYRIFYYNLRGVRISSYSDFFDIMFEIREDNKFKQMVKDADVLVEGIKFIEKTAKLFNESIILPSDLAKVILSKQKGFDVFRYLERVFREMNKKGLKPVIIIDELQRLKGLKSNGELIDDLFNFFVRLTKELHITHCFCLSSDSLFIEYVYDRAELRGRADYILVDDFDKETALKFMDFLSEDILGRKLSEDEKELIYSYVGGKPKDVYDVIIKLKLGKELKDILEFMLKEEIQKLKYFLEDVKEDDEELYNKIVDALKIFKENYEIEDIKIPKNIREFLVKKNILFLNPIEGTLKPQSFLVWNAIKKLLNGH | not soluble
MGSDKIHHHHHHMLEKKARIADEAEIVDEAIVSRRSVRAFLPDMIDDDTIRDILEVAARAPSGTNMQPWRVYVTKGETKQQISDAILNSGIRAEKADWDEYRYYPTQFFEPYLTRRRANGFGLYGALGIGRREVDKMRAQHDRNFVFFDAPVGMIFTIDRRLNQGSWIDYGMFLQNIMVAARGRGLHTCPQAAFAPYHRQIRPVLNIPDEEIVVCGMALGYEDTSKPENAFRTDRVPLEEWVTFSE | not soluble
MGSDKIHHHHHHMCQHSIANIDINKDYDESLGTEEVHYQSFSRMAAFFGRDMQAHRHDRYFQMHYLDTGQIELQLDDHRYSVQAPLFVITPPSVPHAFITESDSDGHVLTVHEELIWPLLEVLYPGTRETFGLPGICLSLADKPDELAALAHYWQLIRRESTAQLPGREHTLALLAQAVFTLLLRNAKLDDHAASGMRGELKLFQRFNQMIDSHYHQHWTVPDYARELHLTESRLTDICRRFANRPPKRLIFDRQLREAKRLLLFSDSAVNEIAWQLGFKDPAYFARFFSRQVGCSPSSYRAQKVPVS | not soluble
MSLRLTKGSVKHQAKTEAELKTVKTQLDTQKAQIEKHFAESAELFKTLINDYQKLYRHYATSSNNLLGEKDQKGLFTQQLITATDKSQNEQPRDYSEGASGLFKENKEEEGHHHHHH | soluble
MSYFKNAFNQKSLIDDSSVYLEPCSSSNFIELKRMHYNEENTKKTWDIIKSLDSVAVLLYEKESDCFVIVKQFRPAIYARRFHFKCDQDQTIDGYTYELCAGLVDKANKSLEEIACEEALEECGYQISPKNLETIGQFYSATGLSGSLQTLYYAEVHKNLKVSKGGGIDTERIEVLFLERSKALDFIMDFQYAKTTGLSLAILWHLKKFKNV | not soluble
MNYQLVKQVRENNPLRKSFIDLAVKTFDLSFEEWYQQGYWTDAYIPYAFVERNKVIANASANIIDLRWQGEPRRYIQIGTVMTEPDHRNKGLAGQLIHHILQDWQQEADAFFLFANPTTVDFYPKFGFTRSEEYQYIMPVSPRAGDFRKLDMDSPDDVALLRHYYEKSNPFSPLRVEHNFGLLMFYCSAFMKHFVYYSAKNEAVVIAMQNGPVLICFDLFCDVGKSLSTLVNELADDHVYQAILGFTPSEDRLGEYEKIEGEDILFVYDQKENLFKDRKLMFPLLAHA | not soluble
